Reference: publication PMC5421877, “SOCS3 inhibits the pathological effects of IL-22 in non-melanoma skin tumor-derived keratinocytes” (Oncotarget, 2017)

Test system: SOCS3 expression in healthy keratinocytes
Experiment: SOCS3 mRNA and protein induction in healthy keratinocytes
Type: cell-based, human
Method: Figure 1 IL-22 induces SOCS3, which limits STAT3 and Erk1/2 activation (A) Keratinocyte cultures (n = 3) were stimulated with IL-22 or not for 10 min and protein lysates were subjected to immunoprecipitation and WB analyses for basal and phospho-IL-22R1, Tyk2 or Jak1. (B) WB of time-course experiments were performed on keratinocyte cultures (n = 3) to evaluate basal STAT3, Erk1/2 and MEK or phosphor-STAT3 (Tyr705 and Ser 727), phosphor-Erk1/2 and phospho-MEK. Anti-β-actin Ab was used to normalize sample loading. (C) SOCS mRNA and protein levels were detected by real-time PCR or WB analyses in cultured keratinocytes prepared from healthy skin (n = 3) left untreated or stimulated with IL-22 for the indicated time periods and normalized with β-actin values. (D) HaCaT cells stably transfected with myc-tagged SOCS1 (n = 4), SOCS2 (n = 2) and SOCS3 (n = 4) genes or control plasmids (mock, n = 3) were left untreated or stimulated with IL-22 for 15 min or 3 h and lysates subjected to WB with anti-phospho STAT3 (Tyr705), -phospho STAT3 (Ser727), -STAT3, -phospho Erk, -Erk, -c-myc and -β-actin Abs, as indicated. (E) Keratinocyte cultures were transiently transfected with siRNA specific for SOCS3 or control siRNA (NC). After 48-h transfection, cells were stimulated with IL-22 or not for the indicated time periods. In RNA interference experiments, data were obtained by three independent experiments, and SOCS3 depletion was assessed by real-time PCR and WB. […] Data are expressed as ratio of densitometric intensity (D. I.) of phosphorylated and unphosphorylated STAT3 and Erk1/2 proteins. p < 0.05 (*) values were considered significant.
Figure 4 SOCS3 and SOCS1 are poorly expressed in the epidermis of NMSC lesions and are not induced in transformed keratinocytes by IL-22 (A) Immunohistochemistry for SOCS3 and SOCS1 (red staining) was performed respectively on frozen or paraffin-embedded sections from biopsies of healthy skin (i), NLS (ii, iii) and LS (iv, v) areas of BCC and SCC, specimens. Psoriatic skin biopsies were also analyzed (vi). Sections were counterstained with Mayer's H&E and were visually evaluated by an pathologist experienced in dermatology. […] (B) Graphs show SOCS3 and SOCS1 mRNA levels which were detected by real-time PCR analysis in cultured SCC (CAL27 and CAL33) and BCC (M77015) skin tumor lines left untreated or stimulated with IL-22 or IFN-γ for 3 h and normalized for β-actin mRNA expression levels. […] SOCS1 was detected by IP using a specific anti-SOCS1 Ab, whereas SOCS3 by WB with an anti-SOCS3 Ab. […] Densitometric intensity (D.I.) of SOCS1 or SOCS3/β-actin was calculated from three independent experiments and numerically expressed as D. I. Ratio. *p < 0.01; **p < 0.05. […] SOCS3 and phospho-Tyr STAT3 levels were detected by WB and normalized to β-actin levels. […]

B1: IL-22: cytokine stimulus, R&D Systems (protein, UniProt Q9GZX6 34-179, looked up)
Interleukin-22: APISSHCRLDKSNFQQPYITNRTFMLAKEASLADNNTDVRLIGEKLFHGVSMSERCYLMKQVLNFTLEEVLFPQSDRFQPYMQEVVPFLARLSNRLSTCHIEGDDLHIQRNVQKLKDTVKKLGESGEIKAIGELDLLFMSLRNACI
time of peak SOCS3 protein induction (IL-22 time course, WB, n = 3): 3 h
time of peak SOCS3 mRNA induction (IL-22 time course, real-time PCR, n = 3): 1 h
SOCS3 mRNA and protein expression (healthy keratinocytes, 3 h mRNA, 6 h protein): significantly induced mRNA and protein expression of SOCS3 in healthy keratinocytes
